Measured values reported in PMC9894263.

Molecular target: GLUT4 template complex Munc18-3:Syntaxin-4:VAMP2 (rat | not stated) (UniProt Q08850)
Test: optical tweezers

B1: full-length cysteine-free SNAP-23 ([change], [change], [change], [change], [change]) (natural protein)
chain: MDDLSPEEIQLRAHQVTDESLESTRRILGLAIESQDAGIKTITMLDEQGEQLNRIEEGMDQINKDMREAEKTLTELNKSSGLSVSPSNRTKNFESGKNYKATWGDGGDSSPSNVVSKQPSRITNGQPQQTTGAASGGYIKRITNDAREDEMEENLTQVGSILGNLKNMALDMGNEIDAQNQQIQKITEKADTNKNRIDIANTRAKKLIDS
  probability of SNAP-23 binding: 0.42
